Measurements: US20250263500A1

Molecular target: CD24 (human) (UniProt P25063)
Experiment: cell-based or functional assay

Sequence of CD24 (human) (P25063 27-59): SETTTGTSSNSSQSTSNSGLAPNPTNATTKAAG

- Phagocytosis rate % (A549 tumor cells by human PBMC-derived M2 macrophages, antibody 5 µg/ml): 2.7%
- Phagocytosis rate (%) (MCF-7 tumor cells by human PBMC-derived M2 macrophages, antibody 5 µg/ml): 1.3%
Substance: negative control antibody (mouse IgG)
